From patent US20110236385A1 (GOVERNMENT OF THE UNITED STATES OF AMERICA AS REPRESENTED …, published 2011)
Blank lines part the entries; values can stand above or below the binder they belong to. Ends that are not written are not given here.

Experiments:
[1] = molecular target: T1, CA125 on the cell surface of OVCAR-3 or YOU cells (human, UniProt Q8WXI7 1-14507, heavily glycosylated with O-linked and N-linked oligosaccharides); experiment: flow cytometry on YOU cells, FULL set to 100%
T1 construct: whole, on cells; also called MUC16; human CA125
Experimental: FIGS. 7A-B. Binding of truncated mutants and alanine mutants to CA125 on the cell surface of YOU cells. A. YOU mesothelioma cells were incubated with full-length extracellular domain of mesothelin (FULL) or a mutant of mesothelin. The binding was visualized with a goat anti-rabbit IgG PE-conjugated secondary antibody by flow cytometry (gray line). Light gray shaded plot: secondary antibody only. B. A mean fluorescence intensity (geometrical mean) was used to quantitatively measure the CA125 binding on YOU cells. In each experiment, the binding of the full-length mesothelin (FULL) to CA125 was determined as 100% of binding. The secondary antibody only was used as a negative (0%) control.
(§1) Flow cytometry—To determine binding of mesothelin fragments to CA125 on the cell surface, OVCAR-3 or YOU cells were grown until confluent, detached, and then incubated with 1 μg/mL of mesothelin or its fragments in FACS buffer (5% BSA, 0.01% NaN₃) for 1 h on ice. Bound fragments were detected by incubating with a 1:200 dilution of Goat anti-Rabbit IgG-PE (Biosource) secondary antibody in FACS buffer for 0.5 h on ice. Cells were analyzed using FACSCalibur (BD Biosciences). Each binding experiment was repeated three to five times.

[2] = molecular target: T2, soluble CA125 in OVCAR-3 supernatant (human, UniProt Q8WXI7 1-14439, limits assumed, heavily glycosylated with O-linked and N-linked oligosaccharides); experiment: sandwich ELISA; average KD told of three proteins
T2 construct: Not purified: used as OVCAR-3 culture supernatant, detected with the anti-CA125 mAb OC125; also called MUC16; OVCAR-3 supernatant containing CA125
Experimental: (§2) Scatchard plots (top left corner) were made. ELISA plates captured the Fc mesothelin mutant fusion proteins at various concentrations (x axis; see Experimental Procedures). OVCAR-3 supernatant containing soluble CA125 was then added, followed by the OC125 mAb and a goat anti-mouse IgG HRP.
(§3) Sandwich ELISA—Nunc MaxiSorp 96 well flat-bottomed plates were incubated overnight with 5 μg/mL, goat anti-rabbit IgG (Jackson ImmunoResearch Laboratories) in PBS, followed by an overnight block with 5% BSA, 0.01% NaN₃ in PBS. Purified Fc mesothelin fragments were diluted to 1 μg/mL in ELISA buffer (0.01% Tween 20, 10% Pierce SuperBlock) and incubated on plate for 1 h at room temperature (RT). Plates were then incubated with OVCAR-3 supernatant containing CA125 for 1 h at RT. To detect bound CA125 a 1:200 dilution of anti-CA125 OC125 mAb (Zymed) was incubated for an additional hour at RT; subsequently a 1:1500 dilution of goat anti-mouse IgG HRP conjugate (Biosource) was added for 1 h at RT. The plates were washed four times with ELISA buffer between each coating.
Kinetic studies by ELISA—To precisely characterize the interaction between CA125 and mesothelin and to determine a binding affinity (KD) for each mesothelin fragment, we used a quantitative ELISA-based assay. ELISA plates were coated with a goat anti-rabbit IgG antibody overnight for capturing the Fc mesothelin mutant fusion proteins. […]

[3] = molecular target: T2, soluble CA125 in OVCAR-3 supernatant; experiment: sandwich ELISA, captured rFc fusion at various concentrations, OVCAR-3 supernatant, OC125 detection; nonlinear regression/Scatchard
Experimental: as §2, §3
(§4) Kinetic studies by ELISA—To precisely characterize the interaction between CA125 and mesothelin and to determine a binding affinity (KD) for each mesothelin fragment, we used a quantitative ELISA-based assay. ELISA plates were coated with a goat anti-rabbit IgG antibody overnight for capturing the Fc mesothelin mutant fusion proteins. OVCAR-3 supernatant containing soluble CA125 was then added, followed by the OC125 mAb. Overall results from the ELISA were consistent with those seen in the Western blot overlay assays except for the E324A mutant of mesothelin (FIG. 5).

[4] = molecular target: T1, CA125 on the cell surface of OVCAR-3 or …; experiment: flow cytometry on OVCAR-3 cells, FULL set to 100%
Experimental: FIGS. 6A-B. Binding of truncated mutants and alanine mutants to CA125 on the cell surface of OVCAR-3 cells. A. OVCAR-3 ovarian cancer cells were incubated with full-length extracellular domain of mesothelin (FULL), Region I, IAB or IBC. The binding was visualized with a goat anti-rabbit IgG PE-conjugated secondary antibody by flow cytometry (gray line). Light gray shaded plot: secondary antibody only. B. A fluorescence intensity (geometrical mean) was used to quantitatively measure the CA125 binding. In each experiment, the binding of the full-length mature form of mesothelin (FULL) to CA125 was determined as 100% of binding. The secondary antibody only was used as a negative (0%) control.
as §1
Cell binding assays by flow cytometry—To assess binding to CA125 on cancer cells, wild-type mesothelin and its mutants were incubated with cells. […]

[5] = molecular target: T2, soluble CA125 in OVCAR-3 supernatant; experiment: sandwich ELISA, captured rFc fusion, OVCAR-3 supernatant, OC125 detection
Experimental: as §3, §4

[6] = molecular target: T2, soluble CA125 in OVCAR-3 supernatant; experiment: Western blot overlay with OVCAR-3 supernatant, OC125 detection
Experimental: FIGS. 4A-B. Western blots of mesothelin fragments and alanine mutants. Each protein (500 ng) was run on an SDS-PAGE gel and transferred to a PVDF membrane. Membrane was blotted with OVCAR-3 supernatant containing CA125 followed by OC125 (anti-CA125 mAb).
Western blots—Purified Fc mesothelin fragments (500 ng) were mixed with Laemmli Sample Buffer (Biorad) supplemented with 5% B-Mercaptoethanol. Samples were boiled for 2 min and separated on 4-20% SDS-PAGE gels (Invitrogen). After transfer for 4 h at 30V, the PVDF membrane was blocked overnight at 4° C. in 1% Western Blocking Reagent (Roche) in Tris buffered saline (50 mM Tris-HCl, 150 mM NaCl). The membrane was then incubated with OVCAR-3 supernatant+0.5% blocking solution for 1 h at RT. This was followed by incubation with 1:200 dilution of OC125 mAb for 1 h at RT. Detection was performed with goat anti-mouse IgG-HRP conjugate (Biosource) 1:1000 for 1 h.

[7] = molecular target: soluble CA125 in OVCAR-3 supernatant (human) (UniProt Q8WXI7); experiment: sandwich ELISA, captured rFc fusion at various concentrations, OVCAR-3 supernatant, OC125 detection; nonlinear regression/Scatchard
[8] = molecular target: CA125 on the cell surface of OVCAR-3 or YOU cells (human) (UniProt Q8WXI7); experiment: cell-based or functional assay
[9] = molecular target: soluble CA125 in OVCAR-3 supernatant (human) (UniProt Q8WXI7); experiment: sandwich ELISA; average KD told of three proteins

CA125 binding activity relative to FULL [1]: ~40% | Kd [2]: ~3 nM
B1: mesothelin Region I (296-390) rabbit IgG Fc fusion protein (Fc fusion, not shown: a dimerising Fc or GST; small tags and cut ends)
chain: EVEKTACPSGKKAREIDESLIFYKKWELEACVDAALLATQMDRVNAIPFTYEQLDVLKHKLDELYPQGYPESVIQHLGYLFLKMSPEDIRKWNVT

Kd [2]: ~3 nM | Kd [3]: 3.35 nM | binding activity relative to FULL [4]: ~90%
B2: mesothelin Region IAB (296-359) rabbit IgG Fc fusion protein (Fc fusion, not shown: a dimerising Fc or GST; small tags and cut ends)
chain: EVEKTACPSGKKAREIDESLIFYKKWELEACVDAALLATQMDRVNAIPFTYEQLDVLKHKLDEL
notes: also called Region IAB wild-type (wt)

Kd [3]: 2.71 nM
B3: H354A alanine mutant of mesothelin Region IAB (296-359), rabbit IgG Fc fusion protein (Fc fusion, not shown: a dimerising Fc or GST; small tags and cut ends)
chain: EVEKTACPSGKKAREIDESLIFYKKWELEACVDAALLATQMDRVNAIPFTYEQLDVLKAKLDEL
notes: Alanine mutant within Region IAB; also called H354A mutant of IAB

Kd [3]: 19.5 nM
B4: W321A alanine mutant of mesothelin Region IAB (296-359), rabbit IgG Fc fusion protein (Fc fusion, not shown: a dimerising Fc or GST; small tags and cut ends)
chain: EVEKTACPSGKKAREIDESLIFYKKAELEACVDAALLATQMDRVNAIPFTYEQLDVLKHKLDEL
notes: Alanine mutant within Region IAB

Kd [3]: 42.4 nM
B5: E324A alanine mutant of mesothelin Region IAB (296-359), rabbit IgG Fc fusion protein (Fc fusion, not shown: a dimerising Fc or GST; small tags and cut ends)
chain: EVEKTACPSGKKAREIDESLIFYKKWELAACVDAALLATQMDRVNAIPFTYEQLDVLKHKLDEL
notes: as for B4

binding result [5]: no binding
B6: Y318A alanine mutant of mesothelin Region IAB (296-359), rabbit IgG Fc fusion protein (Fc fusion, not shown: a dimerising Fc or GST; small tags and cut ends)
chain: EVEKTACPSGKKAREIDESLIFAKKWELEACVDAALLATQMDRVNAIPFTYEQLDVLKHKLDEL
notes: as for B4

binding result [6]: no binding (tested: 500 ng)
B7: mesothelin Region IA (296-337) rabbit IgG Fc fusion protein, rFc at the C-terminus (Fc fusion)
chain: EVEKTACPSGKKAREIDESLIFYKKWELEACVDAALLATQMD
notes: not shown: junction between fragment and rFc, and any tags, not described for this construct; rabbit IgG Fc (rFc)

binding result [5]: no binding
B8: mesothelin Region IC (360-405) rabbit IgG Fc fusion protein (Fc fusion, not shown: a dimerising Fc or GST; small tags and cut ends)
chain: YPQGYPESVIQHLGYLFLKMSPEDIRKWNVTSLETLKALLEVNKGH
modifications: also: fusion with rabbit IgG Fc, thrombin site with flexible linker, myc epitope (no letters given)

binding result [6]: no binding (tested: 500 ng)
B9: mesothelin Region IBC (328-405) rabbit IgG Fc fusion protein (Fc fusion, not shown: a dimerising Fc or GST; small tags and cut ends)
chain: DAALLATQMDRVNAIPFTYEQLDVLKHKLDELYPQGYPESVIQHLGYLFLKMSPEDIRKWNVTSLETLKALLEVNKGH

Kd [7]: 1.54 nM | adhesion of fluorescently labeled mesothelin-expressing H9 cells onto a YOU monolayer [8]: 1 µg/mL | adhesion of fluorescently labeled mesothelin-expressing H9 cells onto an OVCAR3 monolayer [8]: 10 µg/mL | Kd [9]: 3 nM
B10: rabbit IgG Fc fusion of the full-length extracellular domain of mesothelin (296-581) (Fc fusion, part only; not given: rabbit Fc, linker, myc tag, not shown: a dimerising Fc or GST; small tags and cut ends)
chain (part 1 of 2), part: EVEKTACPSGKKAREIDESLIFYKKWELEACVDAALLATQMDRVNAIPFTYEQLDVLKHKLDELYPQGYPESVIQHLGYLFLKMSPEDIRKWNVTSLETLKALLEVNKGHEMSPQAPRRPLPQVATLIDRFVKGRGQLDKDTLDTLTAFYPGYLCSLSPEELSSVPPSSIWAVRPQDLDTCDPRQLDVLYPKARLAFQNMNGSEYFVKIQSFLGGAPTEDLKALSQQNVSMDLATFMKLRTDAVLPLTVAEVQKLLGPHVEGLKAEERHRPVRDWILRQRQDDLDT
chain (part 2 of 2), part: HHHHHH

binding activity relative to FULL [1]: ~10% | binding result [5]: no binding | CA125-binding activity relative to FULL [4]: ~10%
B11: mesothelin Region IB (328-369) rabbit IgG Fc fusion protein (Fc fusion, not shown: a dimerising Fc or GST; small tags and cut ends)
chain: DAALLATQMDRVNAIPFTYEQLDVLKHKLDELYPQGYPESVI
modifications: also: fusion with rabbit IgG Fc, thrombin site with flexible linker, myc epitope (no letters given)
